± gives the uncertainty stated by the source.
Experiment: self-splicing fitness, log relative to wild type (ln ratio); higher = more splicing; Tetrahymena group I intron in knt gene, E. coli kanamycin selection, DiMSum; sequences stand for … in CUCUCU…GGAGGGAAAAGUUAUCAGGCAUGCACCUGGUAGCUAGUCUUUAAACCAAUAGAUUGCAUCGGUUUAAAAGGCAAGACCGUCAAAUUGCGGGAAAGGGGUCAACAGCCGUUCAGUACCAAGUCUCAGGGGAAACUUUGAGAUGGCCUUGCAAAGGGUAUGGUAAUAAGCUGACGGACAUGGUCCUAACCACGCAGCCAAGUCCUAAGUCAACAGAUCUUCUGUUGAUAUGGAUGCAGUUCACAGACUAAAUGUCGGUCGGGGAAGAUGUAUUCUUCUCAUAAGAUAUAGUCGGACCUCUCCUUAAUGGGAGCUAGCGGAUGAAGUGAUGCAACACUGGAGCCGCUGGGAACUAAUUUGUAUGCGAAAGUAUAUUGAUUAGUUUUGGAGUACUCGUGGUCG
Outline: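 Fitness was computed with DiMSum as the error-weighted combination of replicate fold changes, kanamycin versus none, each normalised to wild type. The library randomised all eight intron nucleotides of the P1ex region, with the intron placed in the knt kanamycin-resistance gene on pET-22b(+) in E. coli BL21(DE3). Six replicate transformations were grown overnight at 37°C or 30°C on LB agar with or without 25 μg/mL kanamycin, plus 100 μg/mL carbenicillin, 50 μM IPTG and 0.2% rhamnose. Pooled colonies were amplicon-sequenced on an Illumina HiSeq 2500.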

Sequence	self-splicing fitness (ln) (30 °C)	self-splicing fitness (ln) (37 °C)
AGGCAGCAAUAUUACGAUCA	-0.829 ± 0.13	-0.234 ± 0.15
AGAUAGCAAUAUUACGGCAA	0.243 ± 0.16	-0.127 ± 0.19
GGAGAGCAAUAUUACGCCUU	-2.58 ± 0.35	
CUUAAGCAAUAUUACGUGUA	-3.17 ± 0.14	-2.64 ± 0.17
UUACAGCAAUAUUACGCCUU	-2.35 ± 0.22	-0.83 ± 0.17
GUGAAGCAAUAUUACGUGGG	-3.96 ± 0.2	-2.13 ± 0.15
CCUCAGCAAUAUUACGGAAU	-3.72 ± 0.3	-2.69 ± 0.25
CUUUAGCAAUAUUACGCUUU	-2.36 ± 0.36	-1.45 ± 0.41
UUUAAGCAAUAUUACGGGGG	-2.49 ± 0.22	-2.04 ± 0.18
GUUGAGCAAUAUUACGUUCG	-1.34 ± 0.086	-1.67 ± 0.11
GGGUAGCAAUAUUACGGGUG	-4.22 ± 0.36	-2.68 ± 0.22
AGUAAGCAAUAUUACGACUA	-0.283 ± 0.13	-0.43 ± 0.13
AAGGAGCAAUAUUACGGUAU	-3.5 ± 0.26	-2.06 ± 0.31
CCCGAGCAAUAUUACGUGAA	-3.43 ± 0.37	-1.87 ± 0.34
CUGUAGCAAUAUUACGGAGU	-3.65 ± 0.23	-2.74 ± 0.24
CUCAAGCAAUAUUACGAGUA	-3.49 ± 0.28	-2.41 ± 0.23
GAUGAGCAAUAUUACGCGGU	-3.33 ± 0.28	-2.77 ± 0.34
GAUUAGCAAUAUUACGAACG	-1.09 ± 0.12	0.232 ± 0.13
AAGCAGCAAUAUUACGGCAG	-1.31 ± 0.065	-0.525 ± 0.087
CGGAAGCAAUAUUACGAGUU	-3.29 ± 0.2	-2.49 ± 0.2
GACGAGCAAUAUUACGUACG	-2.63 ± 0.29	-2.17 ± 0.33
AACUAGCAAUAUUACGUGAC	-2.92 ± 0.12	-1.38 ± 0.12
AGCAAGCAAUAUUACGACAU	-0.211 ± 0.011	0.0321 ± 0.032
AGCUAGCAAUAUUACGGAAA	-3.11 ± 0.25	-0.395 ± 0.16
GGUUAGCAAUAUUACGGCAC	-0.473 ± 0.15	-0.251 ± 0.18
AGAUAGCAAUAUUACGAGCC	-0.476 ± 0.18	-1.76 ± 0.28

Sequence	self-splicing fitness (ln) (30 °C)	self-splicing fitness (ln) (37 °C)
ACGUAGCAAUAUUACGAUGG	-3.99 ± 0.35	-1.52 ± 0.29
GCUGAGCAAUAUUACGAUCU	-1.69 ± 0.094	-1.05 ± 0.1
ACAGAGCAAUAUUACGGCAA	-0.636 ± 0.22	-2.08 ± 0.33
GAACAGCAAUAUUACGAGUG	-1.78 ± 0.081	-1.31 ± 0.1
AGGCAGCAAUAUUACGUUCC	-0.801 ± 0.12	-0.27 ± 0.16
CCCUAGCAAUAUUACGAAUC	-3.92 ± 0.22	-2.61 ± 0.18
AAAGAGCAAUAUUACGCAUG	-2.55 ± 0.18	-1.7 ± 0.098
UCAUAGCAAUAUUACGAUAU	-3.76 ± 0.32	-2.4 ± 0.29
UAAUAGCAAUAUUACGCGCC	-2.47 ± 0.34	-1.39 ± 0.41
GACUAGCAAUAUUACGUAGG	-1.95 ± 0.091	-1.03 ± 0.11
GAUUAGCAAUAUUACGUCCU	-1.08 ± 0.14	-0.47 ± 0.18
UCUCAGCAAUAUUACGCUUG	-3.17 ± 0.16	-3.32 ± 0.33
GGAAAGCAAUAUUACGCUGG	-2.2 ± 0.14	-2.81 ± 0.26
CUUCAGCAAUAUUACGUACC	-2.36 ± 0.3	-2.12 ± 0.24
GCAUAGCAAUAUUACGUACA	-1.56 ± 0.15	-0.421 ± 0.13
CUUUAGCAAUAUUACGAGUA	-2.85 ± 0.22	-3.63 ± 0.42
CUAUAGCAAUAUUACGUACU	-3.66 ± 0.47	
UUGCAGCAAUAUUACGGUUC	-4.6 ± 0.27	-1.67 ± 0.18
CACCAGCAAUAUUACGCACC	-3.63 ± 0.47	-2.31 ± 0.34
CUCAAGCAAUAUUACGUUAA	-4.15 ± 0.3	-2.76 ± 0.19
AAAUAGCAAUAUUACGUAGA	-3.32 ± 0.17	-0.484 ± 0.1
UCGAAGCAAUAUUACGCGUA	-1.46 ± 0.15	-1.19 ± 0.13
AAGAAGCAAUAUUACGCAAU	-2.08 ± 0.18	-1.52 ± 0.2
GGUAAGCAAUAUUACGAAAA	-2.86 ± 0.43	-0.969 ± 0.34
AUCCAGCAAUAUUACGCCUG	-3.86 ± 0.26	-2.09 ± 0.16
AUCCAGCAAUAUUACGACGG	-4 ± 0.3	-1.8 ± 0.19

Sequence	self-splicing fitness (ln) (30 °C)	self-splicing fitness (ln) (37 °C)
CUCUAGCAAUAUUACGUCCG	-2.91 ± 0.18	-0.955 ± 0.14
GCAUAGCAAUAUUACGCUCA	-0.595 ± 0.12	-0.211 ± 0.15
GACCAGCAAUAUUACGCGCU	-1.68 ± 0.12	-0.412 ± 0.12
AUGAAGCAAUAUUACGGUAU	-0.945 ± 0.066	-0.484 ± 0.086
AUGAAGCAAUAUUACGUAAA	-1.99 ± 0.09	-1.27 ± 0.11
UCCUAGCAAUAUUACGCGCU	-2.24 ± 0.14	-2.73 ± 0.23
GUAUAGCAAUAUUACGGCUU	-0.746 ± 0.13	1.21 ± 0.2
CGUGAGCAAUAUUACGAACC	-1.44 ± 0.18	-0.0387 ± 0.24
CUGGAGCAAUAUUACGGUCU	-4.34 ± 0.32	-2.38 ± 0.29
UCGAAGCAAUAUUACGUAUC	-3.96 ± 0.35	
CGCUAGCAAUAUUACGACUA	-2.81 ± 0.16	-2.52 ± 0.23
CAGCAGCAAUAUUACGGAAC	-1.79 ± 0.3	-1.87 ± 0.44
CCAAAGCAAUAUUACGCAUC	-3.89 ± 0.16	-3.05 ± 0.16
AUUCAGCAAUAUUACGACGG	-2.61 ± 0.19	-1.52 ± 0.17
AGCGAGCAAUAUUACGUUCU	-2.13 ± 0.14	-0.892 ± 0.14
UUUAAGCAAUAUUACGGAUU	-2.78 ± 0.2	-1.07 ± 0.2
AACAAGCAAUAUUACGGCAU	-0.11 ± 0.057	-0.0731 ± 0.073
GACUAGCAAUAUUACGUAUU	-1.11 ± 0.072	-0.646 ± 0.079
AACCAGCAAUAUUACGCUUC	-4.25 ± 0.16	-2.3 ± 0.11
ACGCAGCAAUAUUACGCAUG	-3.56 ± 0.14	-2.57 ± 0.21
UGUCAGCAAUAUUACGGACU	-1.36 ± 0.12	0.712 ± 0.13
ACAAAGCAAUAUUACGCUGG	-1.3 ± 0.095	-0.426 ± 0.12
GCUAAGCAAUAUUACGUGGU	-3.27 ± 0.19	-2.5 ± 0.18
CCAGAGCAAUAUUACGUACC		-2 ± 0.35

Reference: the supplement of paper PMC7877785
